Assay results published in patent publication US12043671B2, “Antibodies targeting an amphiregulin-derived cell surface neo-epitope” (Gundersen Lutheran Medical Foundation, Inc., priority 2021, dated 2024).

Assays:
[1] = molecular target: T1, Trunc AREG (fragment that remains cell-bound after cleavage by ADAM17) (Homo sapiens, UniProt P15514); experiment: Immunoblot of TRF-conjugated AREG peptides, cleaved mimic; assay type: binding; details: 1 μg/mL antibody, 200 ng TRF-conjugated peptide
T1 construct: host or cells: synthetic peptide conjugated to transferrin
Protocol: (§1) Monomethyl auristatin E (MMAE) conjugated 1A3 antibody (1A3-VC-PAB-MMAE) was prepared using a kit (CM11409) from CellMosaic Inc. (Woburn, MA, USA) following the manufacturer's instructions. Maleimide-activated valine-citrulline p-aminobenzylcarbamate (VCPAB) MMAE was coupled directly to the antibody after reduction through alkylation.^13 The specificity of 1A3 and 1A3-VC-PAB-MMAE to peptides representing human cleaved-AREG was confirmed by immunoblotting. Briefly, transferrin (TRF) conjugated peptides representing cleaved and uncleaved AREG (200 ng) were electrophoresed on SDS-PAGE gels, transferred to PVDF membrane and probed with 1 μg/mL of 1A3 and 1A3-VC-PAB-MMAE. Horseradish peroxidase-conjugated goat anti-rabbit IgG was used. Antibody binding was detected with enhanced chemiluminescence (ECL; Amersham, Arlington Heights, IL, USA). Furthermore, the characterization and purity of 1A3-VC-PAB-MMAE were analyzed using hydrophobic interaction chromatography (HIC) and size-exclusion chromatography (Cell Mosaic).

MCF7-F cells = experiment: Clonogenic assay; assay type: cell-based, human; details: 25 or 50 nM, 72 h then 14 days
Protocol: (§2) MCF7 breast cancer cells were plated in 48-well plates, allowed to attach overnight and treated with 12.5, 25 or 50 nM of 1A3-VC-PAB-MMAE for 72 h. A vehicle treated well served as control. After removing the ADC-containing medium, cells were washed using PBS, trypsinized and plated at a density of 1000 cells/well in 12-well plates. The cells were cultured for 14 days, with fresh medium addition every 3 days. The colonies were stained with 0.5% crystal violet solution. The number of colonies per well was counted.

MCF7 cells = experiment: Clonogenic assay; assay type: cell-based, human; details: MCF7, 25 or 50 nM, 72 h then 14 days
Protocol: as §2

MCF-7 cells = experiment: Tubulin staining (microtubule integrity); assay type: cell-based, human; details: 48 h treatment
Protocol: FIGS. 4A-4E. In vitro 1A3-MMAE cytotoxicity in MCF-7 (FIG. 4A) and MCF-7F (FIG. 4B) cells measured by MTT assay after treatment with 1A3-MMAE, 1A3 or MMAE. FIG. 4C: Clonogenic growth of MCF-7 or MCF-7F cells after exposure to 1A3-MMAE and replating. FIG. 4D: The quantification of clonogenic growth assays in FIG. 4C. (FIG. 4E). Tubulin staining of MCF-7 cells after 48 h treatment with MMAE, 1A3, 1A3-MMAE (40× magnification).

MCF7-F xenografts = experiment: Orthotopic MCF7-F endocrine-resistant xenograft in NSG mice; assay type: in vivo, mouse
Text: (§3) In Vivo Antitumor Activity Studies: The animal experiments were approved by the Institutional Animal Care and Use Committee of University of Wisconsin La Crosse (La Crosse, Wisconsin, USA). Four-week-old female NOD.Cg-Prkdc^scid II2rg^tm1Wjl/SzJ mice (NSG; The Jackson Laboratory) were acclimated for 1 week before the experiments. For MCF7 breast cancer xenograft model, the mice were implanted subcutaneously with 0.72-mg 17β-estradiol 90-day release tablets (Innovative Research of America) 3 days prior to cell injection. […] Firefly luciferase expressing MCF7 and MCF7-F cells (2×10^6 cells in a 1:1 mixture of serum-free DMEM and Matrigel) were injected orthotopically into the fourth inguinal mammary fat pad of each mouse. Once the tumors were well established, each cell line cohort was divided into three groups (n=5). Mean tumor volume at the start of treatment was 111 mm^3 for the MCF7 cohorts and 119 mm^3 for the MCF7-F cohorts. The mice were treated by intraperitoneal injection every 4 days for a total of six doses with unconjugated or MMAE conjugated anti-cleaved-AREG 1A3 antibody (5 mg/kg), or vehicle control (PBS). Tumor volumes were calculated from caliper data by using the formula: Volume (mm^3)=(Length×Width^2)/2. Mice were imaged weekly with the in vivo FX PRO imaging system (Carestream Molecular Imaging, Woodbridge, CA, USA) after injecting luciferin (150 mg/kg body weight). Tumor volume and body weight were monitored once a week. Statistical Analysis:
(§4) To test in vivo efficacy of 1A3-MMAE, human breast cancer cell lines expressing luciferase were injected orthotopically into NSG mice (one tumor in each inguinal mammary gland). Once the average tumor size reached approximately 100-125 mm^3, mice were randomized to one of three treatment groups: PBS, 1A3 (5 mg/kg) or 1A3-MMAE (5 mg/kg). Mice received intraperitoneal injections every 4 days for six total injections and were monitored for tumor progression or regression. Similar experiments were performed with MCF7 (FIGS. 5A, 5B, and 5C, left panels) and MCF7-F (FIGS. 5A, 5B, and 5C, right panels) xenografts.

MCF7 breast cancer cells = experiment: MTT cytotoxicity assay; details: MCF7, 1.56-200 nM, 72 h
Protocol: (§5) The cells were seeded at a density of 5000 cells/well in 96-well plates. Approximately 24 h after cell seeding, the cells were treated with varying doses (1.56, 3.125, 6.25, 12.5, 25, 50, 100 and 200 nM) of MMAE, 1A3 and 1A3-VC-PAB-MMAE. Untreated cells were used as control. After incubating for 72 h, the medium was aspirated and 50 μL of serum-free media and 50 μL of MTT solution (5 mg/mL solution in PBS) was added into each well; the cells were then incubated for 3 h at 37° C. The formazan crystals formed were dissolved with 4 mM HCl, 0.1% NP40 in isopropanol. The absorbance was measured at 590 nm using VersaMax Microplate Reader (Molecular Devices LLC, San Jose, California, USA). The assays were performed in triplicate.

[2] = tested on: MCF7-F (fulvestrant-resistant MCF7) breast cancer cells; experiment: MTT cytotoxicity assay; details: 1.56-200 nM, 72 h
Protocol: as §5

MCF7 xenografts = experiment: Orthotopic MCF7 breast cancer xenograft in NSG mice; assay type: in vivo, mouse
Text: as §3, §4

cleaved-AREG peptide = molecular target: T2, cleaved-AREG peptide (Homo sapiens, UniProt P15514); experiment: ELISA binding of 1A3 and 1A3-VC-PAB-MMAE to cleaved-AREG peptide; details: 0.001-1 μg/mL
T2 construct: host or cells: synthetic peptide
Protocol: Maxisorp flat bottom 96-well plates (Thermo Fisher Scientific) were coated with 5 μg/mL cleaved-AREG peptide at 4° C. overnight. After washing thrice with PBST (PBS with 0.05% Tween20) and blocking for 2 h at RT with 5% non-fat dry milk in PBST, various concentrations of 1A3 and 1A3-VC-PAB-MMAE (0.001, 0.01, 0.1, 1 μg/mL) were added to the wells and incubated for 2 h at RT. The wells were washed four times with PBST and were incubated at RT with Goat anti-rabbit IgG (H+L) Cross-adsorbed-HRP conjugate secondary Ab (ThermoFisher G-21234) for 1 h. One-Step™ Turbo™ B-ELISA Substrate Solution (Thermo Fisher Scientific) was added to the wells for color development, incubated for 15 min and the reaction was stopped by adding 2 M H2SO4.

[3] = molecular target: T3, FL AREG (peptide representing uncleaved AREG) (Homo sapiens, UniProt P15514); experiment: Immunoblot of TRF-conjugated AREG peptides, intact cleavage site; assay type: binding; details: 1 μg/mL antibody, 200 ng TRF-conjugated peptide
T3 construct: a peptide spanning this region (SMKTHSMIDSSLSKIAC); host or cells: synthetic peptide conjugated to transferrin
Protocol: as §1

B1: 1A3-MMAE: Monomethyl auristatin E (MMAE) conjugated 1A3 antibody via valine-citrulline p-aminobenzylcarbamate linker (conjugate)
VH: QSVKESEGRLVTPGTPLRLTCTVAGYSLSRYHMCWVRQAPGKGLEWIGMIGGSGRTDYASWAKGRFTISKTSTTVDLKITSPTTEDTATYFCSTVYTDSDGDFWGPGTLVTVSS
VL: AELDMTQTPSSKSVPVGGTVTINCQASESVYSNDRLAWFQQKPGQPPKLLIYYASTLASGVPSRFKGSGSGTQFTLTISDLECADAATYYCQSCYDMSSYGVAFGGGTELEIL
recognition of truncated AREG peptide by immunoblot [1]: specifically recognized | clonogenic survival (number of colonies relative to control) (MCF7-F cells): dose-dependent effect on survival | clonogenic survival (number of colonies relative to control) (MCF7 cells): dose-dependent effect on survival | tubulin disruption (microtubule integrity) (MCF-7 cells): exhibited tubulin disruption | longitudinal luciferase imaging of xenografts (MCF7-F xenografts; 5 mg/kg): decreased in both volume and signal | tumor volume response by caliper measurements (MCF7-F xenografts; 5 mg/kg i.p. every 4 days, six doses): strong tumor shrinkage | xenografts cleared to sub-detectable levels (MCF7-F xenografts; 5 mg/kg, 10 xenografts): 10 | tumors recurred after follow-up (MCF7-F xenografts; 5 mg/kg, 204-day follow-up period): 10/10 | tumors returned to a size seen prior to treatment (MCF7-F xenografts; 204-day follow-up): only one tumor | re-appearance of a lesion after the end of dosing (representative animal) (MCF7-F xenografts; luciferase imaging): 70 days | cytotoxicity by MTT assay (MCF7 breast cancer cells): considerable cytotoxicity | cytotoxicity by MTT assay [2]: considerable cytotoxicity | longitudinal luciferase imaging of xenografts (MCF7 xenografts; MCF7, 5 mg/kg): decreased in both volume and signal | xenografts in which tumor volume decreased (maximum response) (MCF7 xenografts; MCF7, 5 mg/kg): 8/10 | xenografts in which tumor volume increased (maximum response) (MCF7 xenografts; MCF7, 5 mg/kg): 2/10 | tumor volume response by caliper measurements (MCF7 xenografts; MCF7, 5 mg/kg i.p. every 4 days, six doses): strong tumor shrinkage | binding to cleaved AREG peptide, unconjugated vs MMAE-conjugated (cleaved-AREG peptide): no substantial difference in binding | reaction with peptide representing uncleaved AREG by immunoblot [3]: did not react
